In patent US20230203202A1 (DRAGONFLY THERAPEUTICS, published 2023):

Experiments:
[1] = target: T1, human 5T4 (SPR and epitope mapping, construct not stated) (human, UniProt Q13641 32-355, limits assumed); assay: SPR
T1 construct: also called h5T4
T1 sequence (looked up): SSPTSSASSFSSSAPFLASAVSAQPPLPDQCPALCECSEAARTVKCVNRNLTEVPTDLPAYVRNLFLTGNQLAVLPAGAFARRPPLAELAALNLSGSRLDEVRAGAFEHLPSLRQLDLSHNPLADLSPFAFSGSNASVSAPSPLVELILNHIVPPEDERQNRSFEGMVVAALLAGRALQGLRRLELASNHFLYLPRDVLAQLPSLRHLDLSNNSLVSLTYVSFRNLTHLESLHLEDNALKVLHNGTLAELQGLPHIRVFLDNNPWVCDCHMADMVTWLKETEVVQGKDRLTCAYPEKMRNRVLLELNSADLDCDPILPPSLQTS
Method: (§1) Briefly, SPR was performed using a Biacore 8K instrument at physiological temperature of 37° C. Briefly, human Fc specific antibodies were covalently immobilized at a density of about 8000-10000 resonance units (RU) on carboxy methyl dextran matrix of a CM5 biosensor chip to create an anti-hFc IgG chip. Samples were injected on the anti-hFc IgG chip at a flow rate of 10 μL/min for 60 seconds. Protein was serially diluted (300 nM-0.14 nM) in three-fold dilutions with running buffer and injected at a flow rate of 30 μl/min over the captured test articles. Association was monitored for 240-300 seconds, and dissociation was monitored for 300-900 seconds. Surfaces were regenerated between cycles with three pulses of 10 mM glycine-HCl (pH 1.7) injected for 20 seconds at 100 μL/min.

cynomolgus 5T4 = target: T2, cynomolgus 5T4 (cynomolgus monkey, UniProt Q4R8Y9 32-355, limits assumed); assay: SPR
T2 construct: also called Cynomolgus monkey 5T4
T2 sequence (looked up): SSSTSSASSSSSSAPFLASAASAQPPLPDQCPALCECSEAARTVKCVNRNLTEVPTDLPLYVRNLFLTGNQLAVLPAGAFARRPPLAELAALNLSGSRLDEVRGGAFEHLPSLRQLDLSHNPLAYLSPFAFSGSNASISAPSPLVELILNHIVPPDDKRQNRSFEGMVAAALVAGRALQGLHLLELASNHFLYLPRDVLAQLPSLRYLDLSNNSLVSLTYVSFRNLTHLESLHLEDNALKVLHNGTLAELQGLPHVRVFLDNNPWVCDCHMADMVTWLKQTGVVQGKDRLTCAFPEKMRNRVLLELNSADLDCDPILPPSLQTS
Method: as §1

[2] = target: T3, human 5T4 on the cell surface (human, UniProt Q13641 32-420); assay: cell-based or functional assay
T3 sequence (looked up): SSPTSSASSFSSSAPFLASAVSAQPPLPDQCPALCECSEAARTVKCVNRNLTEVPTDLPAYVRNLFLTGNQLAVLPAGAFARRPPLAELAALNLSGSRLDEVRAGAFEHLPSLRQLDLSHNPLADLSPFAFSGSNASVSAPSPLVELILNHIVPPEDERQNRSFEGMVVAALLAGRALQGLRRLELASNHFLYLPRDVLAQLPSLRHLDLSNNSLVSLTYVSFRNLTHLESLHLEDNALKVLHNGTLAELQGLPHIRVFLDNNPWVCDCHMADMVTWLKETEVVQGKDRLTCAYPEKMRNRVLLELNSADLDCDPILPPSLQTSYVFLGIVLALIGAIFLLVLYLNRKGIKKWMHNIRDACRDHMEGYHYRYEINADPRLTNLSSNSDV

[3] = target: T3, human 5T4 on the cell surface; assay: cell-based or functional assay; remark: listed apart in the source
[4] = target: T3, human 5T4 on the cell surface; assay: cell-based or functional assay; remark: listed apart in the source
[5] = target: T3, human 5T4 on the cell surface; assay: flow cytometry on FaDu cells (22,000 5T4 per cell)
[6] = target: T3, human 5T4 on the cell surface; assay: flow cytometry on 786-O cells (18,000 5T4 per cell)
[7] = target: T3, human 5T4 on the cell surface; assay: flow cytometry on BT474 cells (20,000 5T4 per cell)
[8] = target: T3, human 5T4 on the cell surface; assay: flow cytometry on H1703 cells (15,000 5T4 per cell)
[9] = target: T3, human 5T4 on the cell surface; assay: flow cytometry on HCT116 cells (14,000 5T4 per cell)
[10] = target: T3, human 5T4 on the cell surface; assay: flow cytometry on HCC4006 cells (53,000 5T4 per cell)
[11] = target: T3, human 5T4 on the cell surface; assay: flow cytometry on KYSE-30 cells (61,000 5T4 per cell)
[12] = target: T1, human 5T4 (SPR and epitope mapping, …); assay: SPR, h5T4 binding; sample oxidised in PBS 0.02% H2O2, 24 hrs RT
[13] = target: T1, human 5T4 (SPR and epitope mapping, …); assay: SPR, Biacore 8K, 37 °C, TriNKET captured on anti-hFc chip, pH 7.4
Method: as §1

[14] = target: T1, human 5T4 (SPR and epitope mapping, …); assay: SPR, h5T4 binding; sample stressed in Tris pH 9, 7 days 40 °C; heterogeneous binding, approximate value

Kd [1]: 6.2 nM
Kd (cynomolgus 5T4): 8.3 nM
ADCP of KYSE-30 cells by M0 macrophages, EC50 [2]: 0.089 nM
ADCP of NCI-H292 cells by M0 macrophages, EC50 [2]: 0.15 nM
NK cell-mediated lysis of primary CAFs, EC50 (first column pair) [3]: 0.081 nM
NK cell-mediated lysis of primary CAFs, EC50 (second column pair) [3]: 0.19 nM
long-term NK cell-mediated inhibition of HCT 116 cells (Incucyte, 72 h), EC50 [4]: 0.16 nM
long-term NK cell-mediated inhibition of HT-29 cells (Incucyte, 72 h), EC50 [4]: 1.3 nM
long-term NK cell-mediated inhibition of KYSE-30 cells (Incucyte, 72 h), EC50 [4]: 0.087 nM
long-term NK cell-mediated inhibition of NCI-H292 cells (Incucyte, 72 h), EC50 [4]: 0.37 nM
EC50 [5]: 7.1 nM
EC50 [6]: 2.7 nM
EC50 [7]: 3.7 nM
EC50 [8]: 2.6 nM
EC50 [9]: 2.1 nM
EC50 [10]: 7.6 nM
EC50 [11]: 2.5 nM
Kd [12]: 7 nM
koff [12]: 0.00086 s⁻¹
kon [12]: 120000 M⁻¹ s⁻¹
Kd [13]: 6.1 nM
koff [13]: 0.00077 s⁻¹
kon [13]: 130000 M⁻¹ s⁻¹
Kd [14]: ~15.1 nM
B1: AB1310/AB1783-TriNKET® (bispecific antibody, human IgG1, kappa)
chain: DIQLTQSPSSLSASVGDRVTITCRASQSVTTSNYNYMHWFQQKPGKAPKLLIKFASNLESGVPSRFSGSGSGTDFTLTISSLQPEDFATYYCQHSWEIPWTFGCGTKVEIKGGGGSGGGGSGGGGSGGGGSEVQLVESGGGLVKPGGSLRLSCAASRFTFSDFGMHWVRQAPGKCLEWVSYISSGSSTIYYADSVKGRFTISRDNAKNSLYLQMNSLRAEDTAVYYCASSQSYYRGTLDYWGQGTTVTVSSASDKTHTCPPCPAPELLGGPSVFLFPPKPKDTLMISRTPEVTCVVVDVSHEDPEVKFNWYVDGVEVHNAKTKPREEQYNSTYRVVSVLTVLHQDWLNGKEYKCKVSNKALPAPIEKTISKAKGQPREPRVYTLPPCRDELTKNQVSLTCLVKGFYPSDIAVEWESNGQPENNYKTTPPVLVSDGSFTLYSKLTVDKSRWQQGNVFSCSVMHEALHNHYTQKSLSLSPG
heavy: EVQLVESGGGLVKPGGSLRLSCAASGFTFSSYSMNWVRQAPGKGLEWVSSISSSSSYIYYADSVKGRFTISRDNAKNSLYLQMNSLRAEDTAVYYCARGAPIGAAAGWFDPWGQGTLVTVSSASTKGPSVFPLAPSSKSTSGGTAALGCLVKDYFPEPVTVSWNSGALTSGVHTFPAVLQSSGLYSLSSVVTVPSSSLGTQTYICNVNHKPSNTKVDKKVEPKSCDKTHTCPPCPAPELLGGPSVFLFPPKPKDTLMISRTPEVTCVVVDVSHEDPEVKFNWYVDGVEVHNAKTKPREEQYNSTYRVVSVLTVLHQDWLNGKEYKCKVSNKALPAPIEKTISKAKGQPREPQVCTLPPSRDELTENQVSLTCLVKGFYPSDIAVEWESNGQPENNYKTTPPVLDSDGSFFLYSWLTVDKSRWQQGNVFSCSVMHEALHNHYTQKSLSLSPG
light: DIQMTQSPSSVSASVGDRVTITCRASQGISSWLAWYQQKPGKAPKLLIYAASSLQSGVPSRFSGSGSGTDFTLTISSLQPEDFATYYCQQGVSFPRTFGGGTKVEIKRTVAAPSVFIFPPSDEQLKSGTASVVCLLNNFYPREAKVQWKVDNALQSGNSQESVTEQDSKDSTYSLSSTLTLSKADYEKHKVYACEVTHQGLSSPVTKSFNRGEC
notes: also called AB1310-TriNKET®; AB1783 10F10 F3′ LH H(T62S) CHO opt
